Experimental data: US20180080021

Molecular target: polymerized microtubules

B1: recombinant R293W mutant KIF3B motor domain (amino acids 1-365) with N-terminal 6x-Histidine tag (protein)
chain: MSKLKSSESVRVVVRCRPMNGKEKAASYDKVVDVDVKLGQVSVKNPKGTAHEMPKTFTFDAVYDWNAKQFELYDETFRPLVDSVLQGFNGTIFAYGQTGTGKTYTMEGIRGDPEKRGVIPNSFDHIFTHISRSQNQQYLVRASYLEIYQEEIRDLLSKDQTKRLELKERPDTGVYVKDLSSFVTKSVKEIEHVMNVGNQNRSVGATNMNEHSSRSHAIFVITIECSEVGLDGENHIRVGKLNLVDLAGSERQAKTGAQGERLKEATKINLSLSALGNVISALVDGKSTHIPYWDSKLTRLLQDSLGGNAKTVMVANVGPASYNVEETLTTLRYANRAKNIKNKPRVNEDPKDALLREFQEEIARL
In the case of B1, the “rate of ATP hydrolysis (kinesin ATPase end-point assay, free phosphate) with increasing amounts of microtubules” value is reported as “When compared to wild-type, the mutant motor domain displayed a significantly reduced rate of ATP hydrolysis upon incubation with various concentrations of microtubules”.
